Patent US10508139B2, “Compound, use, anti-tumor pharmaceutical composition, gene construct for polypeptide expression, process for the production, process for the evaluation of tumor cells, method of sensitization of tumor cells to chemotherapeutic” (União Brasileira de Educaçâo e Assistência, mantendedora da …, priority 2012, dated 2019)

Assays:
B16F10 cells [1] = assay: Tumor growth of B16F10 cells transiently transfected with murine HspBP1 or HspBP1 (1-136); type: in vivo, mice; conditions: subcutaneous, monitored for 20 days
Protocol: Working with the possibility that human HspBP1 protein is recognized by the mouse immune system and that this is the reason for the tumor growth reduction, we decided to repeat the experiments using murine HspBP1. The B16F10 cells were transiently transfected with plasmid containing the sequence encoding the murine HspBP1 or […] as a control, and these cells were injected subcutaneously in the mouse thigh. Tumor growth was monitored for 20 days by measuring the volume of the thigh using a digital caliper.
B16F10 cells (5×10^5) were transiently transfected with pcDNA4/TO plasmid alone or containing the sequence encoding HspBP1 and HspBP1 (1-136) protein and, after 24 h, were injected subcutaneously into mice. A)—Quantification of tumor growth inhibition by HspBP1 after 20 days of tumor growth (Mann-Whitney test, p<0.05). B)—Tumor-bearing mice were photographed after 20 days of tumor growth. C)—Western blot analysis showing in vitro HspBP1 and truncated HspBP1 (1-136) expression on transfected cells.

B16F10 cells [2] = assay: Survival of transfected B16F10 cells after heat shock; type: cell-based, murine; conditions: overexpression in B16F10 cells, heat shock 42° C. for 1 h
Protocol: When Hsp70 is silenced in B16F10 cells using siRNA and when we submit the cells to heat shock, there is a reduction in the number of viable cells in vitro (FIG. 3).
B—Western blot analysis of Hsp70 and actin expression in B16F10 cells, after silencing Hsp70 with siRNA. Cells were treated with control siRNA (lane 1) or Hsp70 siRNA (lane 2) and subsequently heat shocked at 42° C. for 2 hours, followed by a recovery of 37° C. for 4 h. C—Survival of B16F10 cells transiently transfected with pcDNA4/TO plasmid containing the murine HspBP1 sequence or pcDNA4/TO plasmid having murine HspBP1 (1-136) sequence; with or without heat shock at 42° C. for 1 h.

[3] = target: T1, Hsp70 on the surface of the cells (Mus musculus, UniProt Q61696); assay: Binding to B16F10 cells analyzed by flow cytometry; design: species or system murine; conditions: B16F10 cells labeled 2 hours on ice
T1 construct: endogenous in cells; host or cells: B16F10 murine melanoma cells
T1 sequence (Q61696 whole entry): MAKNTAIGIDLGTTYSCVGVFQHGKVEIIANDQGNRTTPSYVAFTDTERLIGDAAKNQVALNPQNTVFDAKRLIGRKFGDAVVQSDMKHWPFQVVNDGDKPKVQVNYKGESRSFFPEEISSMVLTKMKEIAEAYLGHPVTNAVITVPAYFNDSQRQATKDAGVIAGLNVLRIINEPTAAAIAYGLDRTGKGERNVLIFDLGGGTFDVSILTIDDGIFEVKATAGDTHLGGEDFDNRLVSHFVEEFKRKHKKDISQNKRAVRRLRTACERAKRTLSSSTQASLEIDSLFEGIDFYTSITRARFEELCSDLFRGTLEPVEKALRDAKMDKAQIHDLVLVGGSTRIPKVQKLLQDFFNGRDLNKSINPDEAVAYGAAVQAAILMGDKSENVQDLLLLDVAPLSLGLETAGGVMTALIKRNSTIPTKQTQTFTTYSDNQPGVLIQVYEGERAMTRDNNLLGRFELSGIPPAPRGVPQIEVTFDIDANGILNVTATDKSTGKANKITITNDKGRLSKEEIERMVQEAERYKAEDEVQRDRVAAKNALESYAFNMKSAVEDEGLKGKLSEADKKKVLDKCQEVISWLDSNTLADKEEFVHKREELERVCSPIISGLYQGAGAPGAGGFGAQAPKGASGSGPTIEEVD
Text: Studies have shown that Hsp70 and HspBP1 can be secreted by tumor cells (Evdonin et al., 2009) and it is well established that Hsp70 is present in human serum (Pockley et al., 1998). Our laboratory has shown that breast cancer patients had twice the HspBP1 level in their serum compared to tumor-free individuals. Furthermore, breast tumors contained HspBP1 (and Hsp70) levels that were 4 times higher than the normal adjacent tissue (Souza et al., 2009).
Fc receptors were blocked using […], then the cells were labeled for 2 hours on ice with HspBP1 (FL) or HspBP1 (1-136). Cells were acquired on FACS Canto II cytometer (BD bioscience), and the data were analyzed using the FlowJo software (TreeStar).

activated caspase 3 = assay: Ex vivo activated caspase 3 Western blot of treated tumors; type: in vivo, mice; conditions: tumor removed 24 hours after treatment, OVA control
Protocol: We performed ex vivo tests to verify that HspBP1 treatment could activate caspase 3 in melanoma. 8×10^5 cells/animals were injected and after 3 days they were treated with HspBP1 FL, HspBP1 (1-136) or OVA. After 24 hours, the tumor was removed and analyzed for activated caspase 3 by Western blot (FIG. 5).
The 17 kDa band represents the marking of activated caspase 3.

tumor = assay: Intravenous injections in tumor bearing mice; type: in vivo; conditions: circulating levels increased through intravenous injections
Text: The invention therefore additionally provides a new in vivo experimental model for the development of new anti-tumor agents.

B16F10 cells [4] = assay: Single HspBP1 treatment of B16F10 cells in culture; type: cell-based, murine; conditions: no added stressor
B16F10 cells [5] = assay: Intratumoral injection of recombinant protein in melanoma-bearing mice; type: in vivo; conditions: 40 ug intratumorally on days 3 and 6, monitored for 16 days, BSA control
Protocol: The recombinant form of the non-natural 1-136 peptide was produced. Then melanoma-bearing mice were treated with whole protein (FL) or only with said peptide. […] 3 and 6 days later, 40 ug HspBP1, BSA or truncated HspBP1 were intratumorally injected in 100 uL PBS. Tumor growth was monitored for 16 days. Tumor sizes were measured using a caliper. Tumor volume (V) (mm3) was calculated using V=d2×D×0.5, wherein d=smaller diameter and D=larger diameter.

B16F10 cells [6] = assay: Sensitization of B16F10 cells to hydrogen peroxide-induced death (MTT, annexin/propidium iodide); type: cell-based, murine; conditions: HspBP1 for 2 h, then hydrogen peroxide; MTT after 24 h or annexin/propidium iodide after 12 h
Protocol: Since Hsp70 protects against death induced by oxidative stress—such as, for example, that induced in the treatment with hydrogen peroxide, we hypothesized that HspBP1 will sensitize tumors to death by oxidative stress, thereby enabling a tumor cell sensitization method to chemotherapeutic agents. HspBP1 was added at different concentrations with B16F10 cells cultured for 2h and then hydrogen peroxide was added. After 24 h and 12 h viability was assessed using MTT or by annexin and propidium iodide labeling to assess apoptotic cells. […] Viability was assessed using MTT after 24 hours (A) or by annexin and propidium iodide labeling after 12 h (B).

draining lymph nodes = assay: Draining lymph node analysis of tumors over-expressing HspBP1 (flow cytometry); type: in vivo, mice; conditions: 25 days of tumor growth
Protocol: Furthermore, activation of dendritic cells and the number of CD4 and CD8 T cells in draining lymph nodes of tumor-bearing mice transiently over-expressing HspBP1 was evaluated. […] A—Number of CD4+ or CD8+ T cells in draining lymph nodes. B—Number of CD11c+CD86+MHCII+ cells. C—Dot plot graph showing the frequency of CD11c+, CD86 +MHC-II+ dendritic cells.

Hsp70 ATPase activity = Hsp70 ATPase activity (Homo sapiens, UniProt P0DMV8); conditions: according to Raynes et al. (2003); cited from earlier work
Hsp70 ATPase activity, sequence (P0DMV8 whole entry): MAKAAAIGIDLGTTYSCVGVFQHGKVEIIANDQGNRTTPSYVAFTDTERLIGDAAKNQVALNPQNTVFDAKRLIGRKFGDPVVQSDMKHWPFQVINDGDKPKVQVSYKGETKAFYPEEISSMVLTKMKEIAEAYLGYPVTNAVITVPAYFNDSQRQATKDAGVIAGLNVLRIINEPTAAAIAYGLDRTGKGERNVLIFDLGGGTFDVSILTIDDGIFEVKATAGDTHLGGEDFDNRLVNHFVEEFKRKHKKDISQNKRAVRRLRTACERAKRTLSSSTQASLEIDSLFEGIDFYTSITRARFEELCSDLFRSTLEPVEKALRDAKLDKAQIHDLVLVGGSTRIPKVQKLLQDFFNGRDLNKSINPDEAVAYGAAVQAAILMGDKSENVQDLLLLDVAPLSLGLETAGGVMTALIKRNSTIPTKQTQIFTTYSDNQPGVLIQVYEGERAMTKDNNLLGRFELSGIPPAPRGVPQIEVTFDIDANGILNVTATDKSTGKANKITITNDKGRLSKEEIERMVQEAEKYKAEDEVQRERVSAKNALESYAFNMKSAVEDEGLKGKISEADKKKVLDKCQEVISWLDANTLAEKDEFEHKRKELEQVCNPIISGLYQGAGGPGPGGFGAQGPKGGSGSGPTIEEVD

GL, glioma cell line = assay: Apoptosis in GL glioma cell line (Annexin V/iodide flow cytometry); type: cell-based; conditions: 10 or 20 ug for 24 hours, albumin control
Protocol: In vitro assays were performed to verify whether HspBP1 could induce cell death in GL, glioma cell line. 5×10^5 cells were seeded per well in a 24 well plate. Then, cells were incubated with 10 or 20 ug HspBP1 or albumin for 24 hours in DMEM containing 1% fetal bovine serum. After 24 hours, the samples were analyzed by flow cytometry using the Annexin V/iodide kit (BD).

B16F10 cells [7] = assay: Chemo-sensitization of B16F10 cells to cisplatin (MTT); type: cell-based, murine; conditions: HspBP1 for 2 h, then cisplatin 160 ug/ml, 14 h
Protocol: (§1) It was also assessed whether HspBP1 may enhance the effect of chemotherapeutic agents already used in clinical practice. The B16F10 cells were plated at a concentration of 4×10^3 cells per well in a 96 well plate in 200 ul 10% DMEM medium. After 24 h, HspBP1 was added at different concentrations in AIM-V medium, and cells were incubated for 2 h; then cisplatin was added at a concentration of 160 ug/ml. After 14 h cell viability was assessed using MTT.
as §1, with “The” for “It was also assessed whether HspBP1 may enhance the effect of chemotherapeutic agents already used in clinical practice. The”, “14 h,” for “14 h”

B16F10 cells [8] = assay: Growth of HspBP1-overexpressing B16F10 tumors in WT and RAG-/- mice; type: in vivo; conditions: for tumor size vs vector control: 25 days of tumor growth
Protocol: One possibility is that the host immune system plays a role in in vivo tumor growth inhibition mediated by HspBP1. A comparison between wild WT mice (C57BL6/c) and immunodeficient mice (RAG−/−) was used to further explore the involvement of the immune system in tumor regression mediated by HspBP1 overexpression in B16F10 cells (FIG. 10).
Tumor volume (mm3) was measured after 25 days of tumor growth (Mann-Whitney test, p <0.05).

B16F10 cells [9] = assay: Tetracycline-induced human HspBP1 overexpression in B16F10 tumors in mice; type: in vivo
Text: As part of the experimental strategy, a gene construct was designed and implemented for the Hsp70 binder expression, said construct being particularly useful for gene therapy for the treatment of mammalian tumors. Said gene construct comprises: • a sequence encoding a Hsp70 binding polypeptide; • a promoter sequence operatively linked to said encoding sequence; • said promoter and coding sequences being present on a vector or functional plasmid for expression of said polypeptide in prokaryotic or eukaryotic cells. In this context, a system was developed in which HspBP1 expression was regulated by the presence of tetracycline. B16F10 cells were stably transfected with pcDNA6/TR plasmid, the transfected clones were selected using antibiotic and then the cells were transfected with a plasmid containing the sequence encoding human HspBP1, or empty vector as a control. The HspBP1 increased expression was verified by adding tetracycline to the culture medium. […]
The B16F10 cells were stably transfected with pcDNA6/TR and pcDNA4/TO plasmids with or without the human HspBP1 sequence. […] Quantification of tumor growth inhibition by HspBP1 (Mann-Whitney test, /d/p<0.05). Tumor volume (V) was calculated using V=d2×D×0.5, where d=smaller diameter and D=larger diameter.

With “murine HspBP1: murine HspBP1 expressed in B16F10 cells from pcDNA4/TO plasmid; 94% identical to human form” the tumor growth (B16F10 cells [1]) was “inhibits tumor growth”.

B1: truncated HspBP1: non-natural peptide corresponding to amino acids 1-136 of HspBP1 (protein)
chain: MADKGSGGSRLPLALPPASQGCSSGGSGSSAGGSGNPRPPRNLQGLLQMAITAGSQEPDPPPEPMSEERRQWLQEAMSAAFRGQREEVEQMKNCLRVLSQATPAMAGEAELATDQQEREGALELLADLCENMDNAA
With B1 the “cell survival after heat shock” value (B16F10 cells [2]) was “no changes occur in vitro”, the “binding to the extracellular surface of tumor cells” value [3] was “can bind to the extracellular surface of tumor cells” and the tumor growth (B16F10 cells [1]) was “also inhibits tumor growth”. For the same molecule, the “apoptosis in vivo (activated caspase 3)” value (activated caspase 3) was “inhibits tumor growth by inducing apoptosis in vivo”.

B2: HspBP1: Hsp70 binding co-chaperone protein, SEQ ID No: 1; species of the protein not always stated (protein, listed as Mus musculus)
chain: B1 chain
In the case of B2, the tumor growth (tumor) is reported as “tumor growth was reduced”, the “anti-tumor effect in culture” value (B16F10 cells [4]) is reported as “lack of an anti-tumor effect” and the tumor growth (B16F10 cells [5]) is reported as “Reduces Tumor Growth”. For the same molecule, the “cell survival after heat shock” value (B16F10 cells [2]) was “no changes occur in vitro”, the “death induced by oxidative stress” value (B16F10 cells [6]) was “enhances death induced by oxidative stress” and the “T cell frequency in the draining lymph nodes” value (draining lymph nodes; CD4 and CD8 T cells) was “no difference in T cell frequency”. The “activation of dendritic cells in the lymph node” value (draining lymph nodes; CD11c+CD86+MHCII+ cells) was “trend in the activation of dendritic cells”, the “binding to the extracellular surface of tumor cells” value [3] was “can bind to the extracellular surface of tumor cells” and the “HspBP1/Hsp70 molar ratio resulting in 50% inhibition of Hsp70 ATPase activity” value (Hsp70 ATPase activity) was 4.0. The “frequency of apoptotic cells” value (GL, glioma cell line) was “increase in the frequency of apoptotic cells”, the “effect on cisplatin-induced death (cell viability, MTT)” value (B16F10 cells [7]) was “enhances the effect of cisplatin death” and the “tumor size vs vector control” value (B16F10 cells [8]; RAG -/- mice) was “tendency to be smaller than tumors transfected with vector alone, although the difference was not significant”. The “tumor size vs vector control” value (B16F10 cells [8]; WT mice (C57BL6/c)) was “significantly smaller than tumors transfected only with the vector as a control” and the “tumor size, WT vs RAG -/- mice” value (B16F10 cells [8]; tumors expressing HspBP1) was “significantly smaller in WT than in RAG −/− mice”.

B3: human HspBP1: human HspBP1 expressed in B16F10 cells from a tetracycline-regulated plasmid (protein, UniProt Q9NZL4 1-359, looked up)
Hsp70-binding protein 1: MSDEGSRGSRLPLALPPASQGCSSGGGGGGSSAGGSGNSRPPRNLQGLLQMAITAGSEEPDPPPEPMSEERRQWLQEAMSAAFRGQREEVEQMKSCLRVLSQPMPPTAGEAEQAADQQEREGALELLADLCENMDNAADFCQLSGMHLLVGRYLEAGAAGLRWRAAQLIGTCSQNVAAIQEQVLGLGALRKLLRLLDRDACDTVRVKALFAISCLVREQEAGLLQFLRLDGFSVLMRAMQQQVQKLKVKSAFLLQNLLVGHPEHKGTLCSMGMVQQLVALVRTEHSPFHEHVLGALCSLVTDFPQGVRECREPELGLEELLRHRCQLLQQHEEYQEELEFCEKLLQTCFSSPADDSMDR
For B3, the average tumor volume (B16F10 cells [9]; B16F10 stably transfected, injected subcutaneously into thigh of mice, tetracycline in drinking water, control tumors 46.9 mm^3) was 2.07 mm^3 and the tumor growth (B16F10 cells [9]; induced human HspBP1 overexpression vs mice without tetracycline) was “clearly reduced”.
